Assay results: the Immune Epitope Database (IEDB)

Assays:
HLA-C*12:03 = experiment: IEDB peptide-MHC binding, purified MHC/direct/fluorescence; filed as Kd, often an IC50 or EC50 that approximates it; ≥ and ≤ were set here for values at or beyond the usual limits of such assays
HLA-A*11:01 = experiment: as above
HLA-B*08:01 = experiment: as above
HLA-B*27:05 = experiment: as above
HLA-A*02:11 = experiment: as above
HLA-B*44:02 = experiment: as above
HLA-A*03:01 = experiment: as above
HLA-B*18:01 = experiment: as above
HLA-B*40:01 = experiment: as above
HLA-B*07:02 = experiment: as above
HLA-A*01:01 = experiment: as above
HLA-B*15:01 [1] = experiment: as above
HLA-A*24:02 [2] = experiment: as above
HLA-B*58:01 = experiment: as above
HLA-B*46:01 [3] = experiment: IEDB peptide-MHC binding, purified MHC/competitive/fluorescence; filed as Kd, often an IC50 or EC50 that approximates it; ≥ and ≤ were set here for values at or beyond the usual limits of such assays; details: source organism: Influenza A virus (A/swine/Italy/1521/98(H1N2))
HLA-C*06:02 = experiment: IEDB peptide-MHC binding, purified MHC/direct/fluorescence; filed as Kd, often an IC50 or EC50 that approximates it; ≥ and ≤ were set here for values at or beyond the usual limits of such assays
HLA-B*35:01 = experiment: IEDB peptide-MHC binding, purified MHC/competitive/fluorescence; filed as Kd, often an IC50 or EC50 that approximates it; ≥ and ≤ were set here for values at or beyond the usual limits of such assays; details: source organism: Bacillus cereus G9241
HLA-B*15:01 [4] = experiment: as above; details: source organism: Bacillus cereus G9241
HLA-A*23:01 = experiment: IEDB peptide-MHC binding, purified MHC/direct/fluorescence; filed as Kd, often an IC50 or EC50 that approximates it; ≥ and ≤ were set here for values at or beyond the usual limits of such assays; details: source organism: Dengue virus 1 Singapore/S275/1990
HLA-A*68:02 = experiment: as above
HLA-A*31:01 = experiment: as above
HLA-B*39:01 [5] = experiment: as above; details: source organism: Zaire ebolavirus
HLA-A*02:12 [6] = experiment: as above
HLA-A*24:03 = experiment: as above; details: source organism: Zaire ebolavirus
HLA-A*69:01 = experiment: as above
HLA-A*29:02 = experiment: as above; details: source organism: Zaire ebolavirus
HLA-B*57:01 = experiment: as above
HLA-B*46:01 [7] = experiment: as above
HLA-A*02:01 [8] = experiment: as above
HLA-A*02:01 [9] = experiment: IEDB peptide-MHC binding, purified MHC/competitive/fluorescence; ≥ and ≤ were set here for values at or beyond the usual limits of such assays; details: source organism: Zaire ebolavirus
HLA-A*24:02 [10] = experiment: as above; details: source organism: Zaire ebolavirus
HLA-A*26:01 = experiment: IEDB peptide-MHC binding, purified MHC/competitive/fluorescence; filed as Kd, often an IC50 or EC50 that approximates it; ≥ and ≤ were set here for values at or beyond the usual limits of such assays
HLA-B*51:01 = experiment: as above
HLA-B*15:17 = experiment: as above
HLA-B*27:03 = experiment: as above
HLA-B*48:01 = experiment: IEDB peptide-MHC binding, purified MHC/direct/fluorescence; filed as Kd, often an IC50 or EC50 that approximates it; ≥ and ≤ were set here for values at or beyond the usual limits of such assays; details: source organism: Orthohantavirus hantanense
HLA-B*39:01 [11] = experiment: IEDB peptide-MHC binding, purified MHC/competitive/fluorescence; filed as Kd, often an IC50 or EC50 that approximates it; ≥ and ≤ were set here for values at or beyond the usual limits of such assays; details: source organism: Hantaan virus 76-118
HLA-A*02:12 [12] = experiment: as above; details: source organism: Vibrio cholerae
HLA-A*02:01 [13] = experiment: as above; details: source organism: Vibrio cholerae
HLA-A*02:19 = experiment: as above; details: source organism: Bacillus licheniformis
HLA-C*05:01 = experiment: IEDB peptide-MHC binding, purified MHC/direct/fluorescence; filed as Kd, often an IC50 or EC50 that approximates it; ≥ and ≤ were set here for values at or beyond the usual limits of such assays; details: source organism: Giardia intestinalis
[14] = source organism: Influenza A virus (A/duck/Mongolia/47/2001(H7N1))
[15] = source organism: Influenza A virus (A/Puerto Rico/8/34/Mount Sinai(H1N1))
[16] = source organism: Zaire ebolavirus
[17] = source organism: Limestone Canyon virus
[18] = source organism: Orthohantavirus hantanense
[19] = source organism: Hantaan virus 76-118
[20] = source organism: Bacillus licheniformis
[21] = source organism: Giardia lamblia ATCC 50803
[22] = source organism: Mycobacterium tuberculosis variant bovis BCG str. Pasteur 1173P2

For FLKDVMESM, the Kd (HLA-C*12:03; source organism: Influenza A virus (A/swine/Italy/1521/98(H1N2))) was ≤ 0.001 µM, the Kd (HLA-A*11:01; [14]) was ≥ 20 µM and the Kd (HLA-B*08:01; [15]) was 0.158 µM. The Kd (HLA-B*27:05; [14]) was ≥ 20 µM, the Kd (HLA-A*02:11; source organism: Influenza A virus H3N2) was ≤ 0.001 µM and the Kd (HLA-B*44:02; [14]) was ≥ 20 µM. For the same sequence, the Kd (HLA-A*03:01; [14]) was ≥ 20 µM, the Kd (HLA-B*18:01; [14]) was ≥ 20 µM and the Kd (HLA-B*40:01; [14]) was ≥ 20 µM. The Kd (HLA-B*07:02; [15]) was 0.312 µM, the Kd (HLA-A*01:01; [14]) was ≥ 20 µM and the Kd (HLA-B*15:01 [1]; [15]) was 0.22 µM. The Kd (HLA-A*24:02 [2]; [14]) was ≥ 20 µM, the Kd (HLA-B*58:01; [14]) was ≥ 20 µM and the Kd (HLA-B*46:01 [3]) was 0.0239 µM.

With FVHDSVQYF the Kd (HLA-C*06:02; source organism: Bacillus cereus G9241) was 0.133 µM, the Kd (HLA-B*35:01) was 0.0009 µM and the Kd (HLA-B*15:01 [4]) was 0.0289 µM.

In the case of GFMNEDHWF, the Kd (HLA-A*23:01) is reported as 0.046 µM and the Kd (HLA-A*24:02 [2]; source organism: Dengue virus 1 Singapore/S275/1990) is reported as 0.09 µM.

With GHMMVIFRL the Kd (HLA-A*68:02; [16]) was ≥ 20 µM, the Kd (HLA-A*31:01; [16]) was ≥ 20 µM and the Kd (HLA-B*39:01 [5]) was 0.0867 µM. The Kd (HLA-A*02:12 [6]; [16]) was ≥ 20 µM, the Kd (HLA-B*27:05; [16]) was ≥ 20 µM and the Kd (HLA-A*24:03) was ≥ 20 µM. For the same sequence, the Kd (HLA-A*02:11; [16]) was ≥ 20 µM, the Kd (HLA-B*44:02; [16]) was ≥ 20 µM and the Kd (HLA-A*03:01; [16]) was ≥ 20 µM. For the same sequence, the Kd (HLA-A*69:01; [16]) was ≥ 20 µM, the Kd (HLA-B*18:01; [16]) was ≥ 20 µM and the Kd (HLA-A*29:02) was ≥ 20 µM. For the same sequence, the Kd (HLA-B*40:01; [16]) was ≥ 20 µM, the Kd (HLA-B*57:01; [16]) was ≥ 20 µM and the Kd (HLA-B*07:02; [16]) was ≥ 20 µM. The Kd (HLA-B*46:01 [7]; [16]) was ≥ 20 µM, the Kd (HLA-A*01:01; [16]) was ≥ 20 µM and the Kd (HLA-B*15:01 [1]; [16]) was ≥ 20 µM. The Kd (HLA-A*02:01 [8]; [16]) was ≥ 20 µM, the Kd (HLA-B*58:01; [16]) was ≥ 20 µM and the IC50 (HLA-A*02:01 [9]) was 0.205 µM. The IC50 (HLA-A*24:02 [10]) was 0.19 µM, the Kd (HLA-A*26:01; [16]) was ≥ 20 µM and the Kd (HLA-B*51:01; [16]) was ≥ 20 µM. For the same sequence, the Kd (HLA-B*15:17; [16]) was ≥ 20 µM and the Kd (HLA-B*27:03; [16]) was ≥ 20 µM.

In the case of IRKPKHLYV, the Kd (HLA-A*68:02; [17]) is reported as ≥ 20 µM, the Kd (HLA-A*31:01; [18]) is reported as ≥ 20 µM and the Kd (HLA-B*48:01) is reported as ≥ 20 µM. For the same sequence, the Kd (HLA-A*11:01; [18]) was ≥ 20 µM, the Kd (HLA-A*02:12 [6]; [17]) was ≥ 20 µM and the Kd (HLA-B*08:01; source organism: Hantavirus CRF367) was 14 µM. For the same sequence, the Kd (HLA-B*27:05; [18]) was ≥ 20 µM, the Kd (HLA-A*02:11; [17]) was ≥ 20 µM and the Kd (HLA-B*44:02; [18]) was ≥ 20 µM. For the same sequence, the Kd (HLA-A*03:01; [18]) was ≥ 20 µM, the Kd (HLA-A*69:01; [18]) was ≥ 20 µM and the Kd (HLA-B*18:01; [18]) was ≥ 20 µM. The Kd (HLA-B*40:01; [18]) was ≥ 20 µM, the Kd (HLA-B*57:01; [18]) was ≥ 20 µM and the Kd (HLA-B*07:02; [18]) was ≥ 20 µM. The Kd (HLA-B*46:01 [7]; [18]) was ≥ 20 µM, the Kd (HLA-A*01:01; [18]) was ≥ 20 µM and the Kd (HLA-B*15:01 [1]; [18]) was ≥ 20 µM. The Kd (HLA-A*02:01 [8]; [18]) was ≥ 20 µM, the Kd (HLA-C*06:02; [19]) was 0.031 µM and the Kd (HLA-B*58:01; [18]) was ≥ 20 µM. For the same sequence, the Kd (HLA-B*39:01 [11]) was ≥ 20 µM, the Kd (HLA-A*26:01; [19]) was ≥ 20 µM and the Kd (HLA-B*51:01; [19]) was ≥ 20 µM. The Kd (HLA-B*15:17; [19]) was ≥ 20 µM and the Kd (HLA-B*27:03; [19]) was ≥ 20 µM.

Work on NLNFDQAAL yielded a Kd (HLA-A*02:12 [12]) of 0.0828 µM and a Kd (HLA-A*02:01 [13]) of 0.0967 µM.

Work on RLIWSHHHI yielded a Kd (HLA-A*31:01; [20]) of 0.462 µM, a Kd (HLA-A*69:01; [20]) of 1.26 µM and a Kd (HLA-B*07:02; [20]) of 12 µM. For the same sequence, the Kd (HLA-B*15:01 [1]; [20]) was 0.296 µM, the Kd (HLA-A*02:01 [8]; [20]) was 1.21 µM and the Kd (HLA-B*58:01; [20]) was 0.0247 µM. For the same sequence, the Kd (HLA-A*02:19) was 0.0879 µM.

WSDLNTTDF was tested, and the Kd (HLA-A*31:01; [21]) was ≥ 20 µM, the Kd (HLA-A*11:01; [21]) was ≥ 20 µM and the Kd (HLA-B*27:05; [21]) was ≥ 20 µM. The Kd (HLA-B*44:02; [21]) was ≥ 20 µM, the Kd (HLA-A*03:01; [21]) was ≥ 20 µM and the Kd (HLA-B*40:01; [21]) was ≥ 20 µM. The Kd (HLA-B*07:02; [21]) was ≥ 20 µM, the Kd (HLA-B*46:01 [7]; [21]) was ≥ 20 µM and the Kd (HLA-A*01:01; [21]) was 0.156 µM. For the same sequence, the Kd (HLA-B*15:01 [1]; [21]) was ≥ 20 µM, the Kd (HLA-A*02:01 [8]; [21]) was ≥ 20 µM and the Kd (HLA-C*05:01) was ≤ 0.001 µM. The Kd (HLA-A*24:02 [2]; [21]) was ≥ 20 µM and the Kd (HLA-B*58:01; [21]) was ≥ 20 µM.

With YAKFARITL the Kd (HLA-C*12:03; [22]) was ≤ 0.001 µM.

In the case of YTWNGTQWV, the Kd (HLA-C*06:02; [22]) is reported as 0.343 µM.
